Key:
Type in all cases: cell-based
[1] = tested on: SRE element in TF-1 cells; experiment: SRE/SEAP reporter assay in TF-1 cells; settings: supernatants from 293T cells transfected with CLC expression vector, SEAP reporter
Excerpt: (§1) Therefore, activation of the Jaks-STATs pathway, reflected by the binding of the GAS or the ISRE element, can be used to indicate proteins involved in the proliferation and differentiation of cells. For example, growth factors and cytokines are known to activate the Jaks-STATs pathway (see Table below). Thus, by using GAS elements linked to reporter molecules, activators of the Jaks-STATs pathway can be identified. Serum response elements (SREs) play a similar role in signal transduction although the DNA sequence which mediates a serum response is unique from the GAS or ISRE sequences.
(§2) Other constructs can be made using the above description and replacing GAS with a different promoter sequence. For example, construction of reporter molecules containing NF-kB and EGR promoter sequences are described in Examples 6 and 8. However, many other promoters can be substituted using the protocols described in these Examples. For instance, SRE, IL-2, NFAT, or Osteocalcin promoters can be substituted, alone or in combination (e.g., GAS/NF-κB/EGR, GAS/NF-κB, Il-2/NFAT, or NF-κB/GAS). Similarly, other cell lines can be used to test reporter construct activity, such as HeLa (epithelial), HUVEC (endothelial), Reh (B-cell), Saos-2 (osteoblast), HUVAC (aortic) or cardiomyocyte.
(§3) Separate the Optiplates to avoid uneven heating.
(§4) An increase in chemiluminescence indicates reporter activity.

[2] = tested on: GAS element in TF-1 cells; experiment: GAS/SEAP reporter assay in TF-1 cells; settings: GAS/SEAP construct in TF-1 cells; supernatants from 293T cells transfected with CLC expression construct
Excerpt: (§5) The sequence of the 5' primer is: [NT] ID NO:16). […] The sequence of the 3' primer is: [NT] ID NO:17). […] Separate the Optiplates to avoid uneven heating. […] An increase in chemiluminescence indicates reporter activity.

[3] = tested on: GAS element in M1 cells; experiment: GAS/SEAP reporter assay in M1 cells; settings: GAS/SEAP construct in M1 cells; supernatants from 293T cells transfected with CLC expression construct
Excerpt: as §5

[4] = tested on: M1 cells; experiment: Protein tyrosine phosphorylation after anti-gp130 immunoprecipitation; settings: M1 cells treated with CLC or LIF supernatant; band of apparent molecular mass 32 kDa
Protocol: Because of the wide range of known factors capable of stimulating tyrosine kinase activity, identifying whether CLC or a molecule induced by CLC is capable of activating tyrosine kinase signal transduction pathways is of interest. Therefore, the following protocol is designed to identify such molecules capable of activating the tyrosine kinase signal transduction pathways.
Seed NIH-3T3 cells in 15 cm^2 cell culture plates in DMEM supplemented with Pen/Strep, 10% FBS, 25 mM Hepes. […] At the point the experiment begins, the cells should be 80-90% confluent. Collect M1 cells in 50 ml tube and centrifuge 1000 rpm for 5 min. Resuspend the cell pellet in “quiescing medium” which is RPMI supplemented with Pen/Strep, glutamine. (It is important to note that quiescing medium contains neither serum nor growth factors.) Centrifuge again at 1000 rpm for 5 min to wash the cells. Again, resuspend the cells in quiescing medium. Incubate the M1 cells in quiescing medium for 16 hours at 37° C.
Pre-warm quiescing medium (for Ml cells) and a metal tube rack to 37° C. Pre-cool quiescing media (for NIH-3T3 cells) and sterile Eppendorf tubes containing 0.5 ml of sample. […] Resuspend M1 cells to 5.0×10^7 cells per 0.5 ml quiescing media. Place all tubes on per warmed metal rack and leave at 37° C. until ready to begin. Add samples to these pre-aliquoted tubes. […]

[5] = tested on: primary neuronal cultures (sympathetic neuron counts); experiment: Neuron counts in primary neuronal cultures
Protocol: (§6) Primary cardiomyocytes, primary neuronal cultures, or other cells are plated at a low density and cultured using standard culturing techniques. […] Cultures are evaluated at a point between 48 and 72 hours post-treatment by counting the number of cells in four non-overlapping fields in three independent cultures and averaging the results.

[6] = tested on: Primary cardiomyocytes; experiment: Cardiac myocyte hypertrophy, cell counts in culture
Protocol: as §6

[7] = tested on: M1 cells; experiment: M1 cell proliferation by BrdU incorporation; settings: dose of 100 μL, 72 hours
Protocol: The effect of CLC on cellular proliferation can be assayed in M1 cells by BrdU incorporation. 1×10^4 cells/100 μL are dispensed into 96-well cell culture plates and labeled with 10 μL BrdU. CLC is added to the cells at several doses (0, 5, 25, and 100 μL) and LIF is added to the cells as a positive control at a dose of 100 μL. The cells are allowed to grow for 72 hours at 37° C. The amount of BrdU incorporation is determined by the Cell Proliferation ELISA BrdU colorimetric kit (Boehringer Mannheim).

[8] = tested on: GAS element in M1 cells; experiment: SEAP reporter assay, SRE experiment repeated in M1 cells; settings: M1 cells replacing TF-1 cells, supernatants from 293T cells transfected with CLC expression vector
Excerpt: as §1, §2, §3, §4

[9] = counted 48 to 72 hours post-treatment, four fields in three independent cultures, averaged

B1: CLC: human polypeptide named cardiotrophin-like cytokine, IL-6 cytokine family member; tested as supernatant of transfected 293T cells (protein)
chain: MDLRAGDSWGMLACLCTVLWHLPAVPALNRTGDPGPGPSIQKTYDLTRYLEHQLRSLAGTYLNYLGPPFNEPDFNPPRLGAETLPRATVDLEVWRSLNDKLRLTQNYEAYSHLLCYLRGLNRQAATAELRRSLAHFCTSLQGLLGSIAGVMAALGYPLPQPLPGTEPTWTPGPAHSDFLQKMDDFWLLKELQTWLWRSAKDFNRLKKKMQPPAAAVTLHLGAHGF
modifications: homo sapiens; signal (-27)..(-1)
notes: human polypeptide named cardiotrophin-like cytokine, IL-6 cytokine family member; tested as supernatant of transfected 293T cells
activation of the SRE element over the negative control level [1]: 2.6 fold
activation of the GAS element [2]: 4.6 fold
induction of the GAS element [3]: 4.5 fold
band of tyrosine-phosphorylated protein in cell extracts [4]: produced a band of phosphorylated protein
No. Neurons [5, 9]: 86
change of sympathetic neuron counts ([5]; samples treated with CLC-transfected supernatants): clear increase
No. Active Myocytes [6, 9]: 50
reduction of cardiomyocyte hypertrophic activity of mock-transfected 293T supernatant ([6]; supernatants from CLC-transfected 293T cells, 48 to 72 hours post-treatment): 2 fold
inhibition of M1 cell proliferation with respect to the negative control [7]: 3.1 fold
induction of the GAS element (SRE experiment repeated) [8]: 3.2 fold

— patent publication US20030087395A1, “Cardiotrophin-like cytokine” (Human Genome Sciences, Inc., priority 1997, published 2003)
